Earlier results as cited in PMC10357296.

Target: IL-18 (Homo sapiens) (UniProt Q14116)
Sequence (Q14116 37-193): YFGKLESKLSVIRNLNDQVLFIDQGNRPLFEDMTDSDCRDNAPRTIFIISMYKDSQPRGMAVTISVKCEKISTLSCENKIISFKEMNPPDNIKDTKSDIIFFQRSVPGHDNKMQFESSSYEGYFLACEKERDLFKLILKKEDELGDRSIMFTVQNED

Chain of IL-18BP (O95998 31-194): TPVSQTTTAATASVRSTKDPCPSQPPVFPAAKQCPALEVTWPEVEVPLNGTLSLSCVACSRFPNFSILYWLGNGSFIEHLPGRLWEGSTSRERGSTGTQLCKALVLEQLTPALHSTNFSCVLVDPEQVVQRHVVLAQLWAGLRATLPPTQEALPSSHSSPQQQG

Substance: IL-18BP (from UniProt O95998)
- Kd: < 1 nM
